{"source": "patent CN114591430A", "binders": {"B1": {"name": "BSA抗体B2 (antibody, V domains shown)", "VH": "VKLQESGGGLVKPGGSLKLSCAASGFTFSLYDESWVRQTPEKRLEWVAEIFLGVYRYVPESKVRFTMSRDNAKNTLYLQMSSLRSEDTAMYYCVRLCYWEPEVKKCWGQGTTVTVSS", "VL": "DIELTQSPLTLSVTIGQPASISCESDLSLKESLDWLLQRPGQSPKRLIYEDLNADCGVPDRFTGSGSGTDSTLKISRVEAEDLGVYYCEIKGTFRWSFGGGTKLEIK"}}, "key": {"牛血清白蛋白(BSA) (bovine) [1]": {"target": "牛血清白蛋白(BSA) (bovine) (UniProt P02769)", "sequence (P02769 25-607)": "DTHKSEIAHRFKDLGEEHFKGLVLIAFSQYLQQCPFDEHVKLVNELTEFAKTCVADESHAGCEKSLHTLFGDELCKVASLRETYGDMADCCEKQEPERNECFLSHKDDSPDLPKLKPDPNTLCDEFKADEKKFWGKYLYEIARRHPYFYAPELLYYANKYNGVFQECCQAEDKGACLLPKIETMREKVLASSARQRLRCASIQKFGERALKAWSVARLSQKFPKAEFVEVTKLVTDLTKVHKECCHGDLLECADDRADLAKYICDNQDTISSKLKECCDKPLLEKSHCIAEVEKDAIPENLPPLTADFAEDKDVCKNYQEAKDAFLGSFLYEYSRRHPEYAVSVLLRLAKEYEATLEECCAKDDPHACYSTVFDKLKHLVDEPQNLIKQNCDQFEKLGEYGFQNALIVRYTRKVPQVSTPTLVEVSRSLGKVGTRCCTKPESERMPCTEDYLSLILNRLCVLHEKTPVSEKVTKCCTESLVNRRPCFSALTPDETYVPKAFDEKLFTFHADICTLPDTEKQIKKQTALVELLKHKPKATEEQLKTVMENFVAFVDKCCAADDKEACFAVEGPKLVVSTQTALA", "assay": "indirect ELISA, BSA coated at 1 ug/ml, purified antibody at dilution 8K, HRP goat anti-mouse IgG"}, "牛血清白蛋白(BSA) (bovine) [2]": {"target": "牛血清白蛋白(BSA) (bovine) (UniProt P02769)", "assay": "ELISA, BSA coated at 1 ug/ml, biotin-labelled antibody at dilution 512K, HRP-avidin"}, "牛血清白蛋白(BSA) (bovine) [3]": {"target": "牛血清白蛋白(BSA) (bovine) (UniProt P02769)", "assay": "indirect ELISA, BSA coated at 1 ug/ml, purified antibody at dilution 2K, HRP goat anti-mouse IgG"}, "牛血清白蛋白(BSA) (bovine) [4]": {"target": "牛血清白蛋白(BSA) (bovine) (UniProt P02769)", "assay": "indirect ELISA, BSA coated at 1 ug/ml, purified antibody at dilution 4K, HRP goat anti-mouse IgG"}, "牛血清白蛋白(BSA) (bovine) [5]": {"target": "牛血清白蛋白(BSA) (bovine) (UniProt P02769)", "assay": "sandwich ELISA, coat B2 2 ug/ml, BSA 24 ng/ml, detection biotin-B6 0.2 ug/ml, mean of A and B"}, "CHO细胞裂解液 [6]": {"target": "CHO细胞裂解液", "assay": "sandwich ELISA, coat B2, detection biotin-B6, lysate 500 ug/ml"}, "HEK293细胞裂解液 [7]": {"target": "HEK293细胞裂解液", "assay": "sandwich ELISA, coat B2, detection biotin-B6, lysate 500 ug/ml"}, "Vero细胞裂解液 [8]": {"target": "Vero细胞裂解液", "assay": "sandwich ELISA, coat B2, detection biotin-B6, lysate 500 ug/ml"}, "牛血清白蛋白(BSA) (bovine) [9]": {"target": "牛血清白蛋白(BSA) (bovine) (UniProt P02769)", "assay": "sandwich ELISA, coat B2 2 ug/ml, BSA 12 ng/ml, detection biotin-B6 0.2 ug/ml, mean of A and B"}, "牛血清白蛋白(BSA) (bovine) [10]": {"target": "牛血清白蛋白(BSA) (bovine) (UniProt P02769)", "assay": "indirect ELISA, BSA coated at 1 ug/ml, purified antibody at dilution 256K, HRP goat anti-mouse IgG"}, "CHO细胞裂解液 [11]": {"target": "CHO细胞裂解液", "assay": "sandwich ELISA, coat B2, detection biotin-B6, lysate 7.81 ug/ml"}, "HEK293细胞裂解液 [12]": {"target": "HEK293细胞裂解液", "assay": "sandwich ELISA, coat B2, detection biotin-B6, lysate 7.81 ug/ml"}, "Vero细胞裂解液 [13]": {"target": "Vero细胞裂解液", "assay": "sandwich ELISA, coat B2, detection biotin-B6, lysate 7.81 ug/ml"}, "牛血清白蛋白(BSA) (bovine) [14]": {"target": "牛血清白蛋白(BSA) (bovine) (UniProt P02769)", "assay": "indirect ELISA, BSA coated at 1 ug/ml, purified antibody at dilution 1024K, HRP goat anti-mouse IgG"}, "牛血清白蛋白(BSA) (bovine) [15]": {"target": "牛血清白蛋白(BSA) (bovine) (UniProt P02769)", "assay": "ELISA, BSA coated at 1 ug/ml, biotin-labelled antibody at dilution 16K, HRP-avidin"}, "CHO细胞裂解液 [16]": {"target": "CHO细胞裂解液", "assay": "sandwich ELISA, coat B2, detection biotin-B6, lysate 250 ug/ml"}, "HEK293细胞裂解液 [17]": {"target": "HEK293细胞裂解液", "assay": "sandwich ELISA, coat B2, detection biotin-B6, lysate 250 ug/ml"}, "Vero细胞裂解液 [18]": {"target": "Vero细胞裂解液", "assay": "sandwich ELISA, coat B2, detection biotin-B6, lysate 250 ug/ml"}, "牛血清白蛋白(BSA) (bovine) [19]": {"target": "牛血清白蛋白(BSA) (bovine) (UniProt P02769)", "assay": "ELISA, BSA coated at 1 ug/ml, biotin-labelled antibody at dilution 1024K, HRP-avidin"}, "牛血清白蛋白(BSA) (bovine) [20]": {"target": "牛血清白蛋白(BSA) (bovine) (UniProt P02769)", "assay": "indirect ELISA, BSA coated at 1 ug/ml, purified antibody at dilution 32K, HRP goat anti-mouse IgG"}, "牛血清白蛋白(BSA) (bovine) [21]": {"target": "牛血清白蛋白(BSA) (bovine) (UniProt P02769)", "assay": "ELISA, BSA coated at 1 ug/ml, biotin-labelled antibody at dilution 4K, HRP-avidin"}, "牛血清白蛋白(BSA) (bovine) [22]": {"target": "牛血清白蛋白(BSA) (bovine) (UniProt P02769)", "assay": "sandwich ELISA, coat B2 2 ug/ml, BSA 1.5 ng/ml, detection biotin-B6 0.2 ug/ml, mean of A and B"}, "牛血清白蛋白(BSA) (bovine) [23]": {"target": "牛血清白蛋白(BSA) (bovine) (UniProt P02769)", "assay": "sandwich ELISA, coat B2 2 ug/ml, BSA 0.75 ng/ml, detection biotin-B6 0.2 ug/ml, mean of A and B"}, "牛血清白蛋白(BSA) (bovine) [24]": {"target": "牛血清白蛋白(BSA) (bovine) (UniProt P02769)", "assay": "sandwich ELISA, coat B2 2 ug/ml, BSA 1 ng/ml, detection biotin-B1 0.2 ug/ml"}, "牛血清白蛋白(BSA) (bovine) [25]": {"target": "牛血清白蛋白(BSA) (bovine) (UniProt P02769)", "assay": "indirect ELISA, BSA coated at 1 ug/ml, purified antibody at dilution 1K, HRP goat anti-mouse IgG"}, "牛血清白蛋白(BSA) (bovine) [26]": {"target": "牛血清白蛋白(BSA) (bovine) (UniProt P02769)", "assay": "ELISA, BSA coated at 1 ug/ml, biotin-labelled antibody at dilution 8K, HRP-avidin"}, "牛血清白蛋白(BSA) (bovine) [27]": {"target": "牛血清白蛋白(BSA) (bovine) (UniProt P02769)", "assay": "sandwich ELISA, coat B2 2 ug/ml, BSA 1 ng/ml, detection biotin-B6 0.2 ug/ml"}, "牛血清白蛋白(BSA) (bovine) [28]": {"target": "牛血清白蛋白(BSA) (bovine) (UniProt P02769)", "assay": "sandwich ELISA, coat B2 2 ug/ml, BSA 0.75 ng/ml, detection biotin-B6 0.2 ug/ml"}, "牛血清白蛋白(BSA) (bovine) [29]": {"target": "牛血清白蛋白(BSA) (bovine) (UniProt P02769)", "assay": "ELISA, BSA coated at 1 ug/ml, biotin-labelled antibody at dilution 64K, HRP-avidin"}, "牛血清白蛋白(BSA) (bovine) [30]": {"target": "牛血清白蛋白(BSA) (bovine) (UniProt P02769)", "assay": "sandwich ELISA, coat B2 2 ug/ml, BSA 1 ng/ml, detection biotin-B5 0.2 ug/ml"}, "牛血清白蛋白(BSA) (bovine) [31]": {"target": "牛血清白蛋白(BSA) (bovine) (UniProt P02769)", "assay": "sandwich ELISA, coat B2 2 ug/ml, BSA 1 ng/ml, detection biotin-B4 0.2 ug/ml"}, "牛血清白蛋白(BSA) (bovine) [32]": {"target": "牛血清白蛋白(BSA) (bovine) (UniProt P02769)", "assay": "indirect ELISA, BSA coated at 1 ug/ml, purified antibody at dilution 16K, HRP goat anti-mouse IgG"}, "牛血清白蛋白(BSA) (bovine) [33]": {"target": "牛血清白蛋白(BSA) (bovine) (UniProt P02769)", "assay": "sandwich ELISA, coat B2 2 ug/ml, BSA 6 ng/ml, detection biotin-B6 0.2 ug/ml"}, "牛血清白蛋白(BSA) (bovine) [34]": {"target": "牛血清白蛋白(BSA) (bovine) (UniProt P02769)", "assay": "sandwich ELISA, coat B2 2 ug/ml, BSA 3 ng/ml, detection biotin-B6 0.2 ug/ml, mean of A and B"}}, "note": "Values joined by “and” are separate entries in the source; they are usually repeats but may differ in a detail not shown here. Equal entries are not always repeated.", "data": [{"binder": "B1", "values": [{"measurement": "OD450", "setting": "牛血清白蛋白(BSA) (bovine) [1]", "value": 0.728}, {"measurement": "OD450", "setting": "牛血清白蛋白(BSA) (bovine) [2]", "value": 0.308}, {"measurement": "OD450", "setting": "牛血清白蛋白(BSA) (bovine) [3]", "value": 1.69}, {"measurement": "OD450", "setting": "牛血清白蛋白(BSA) (bovine) [4]", "value": 0.9}, {"measurement": "OD450 (平均值)", "setting": "牛血清白蛋白(BSA) (bovine) [5]", "value": 1.5}, {"measurement": "OD450", "setting": "CHO细胞裂解液 [6]", "value": 0.135}, {"measurement": "OD450", "setting": "HEK293细胞裂解液 [7]", "value": 0.139}, {"measurement": "OD450", "setting": "Vero细胞裂解液 [8]", "value": 0.134}, {"measurement": "OD450 (平均值)", "setting": "牛血清白蛋白(BSA) (bovine) [9]", "value": 1}, {"measurement": "OD450", "setting": "牛血清白蛋白(BSA) (bovine) [10]", "value": 0.208}, {"measurement": "OD450", "setting": "CHO细胞裂解液 [11]", "value": 0.136}, {"measurement": "OD450", "setting": "HEK293细胞裂解液 [12]", "value": 0.132}, {"measurement": "OD450", "setting": "Vero细胞裂解液 [13]", "value": 0.138}, {"measurement": "OD450", "setting": "牛血清白蛋白(BSA) (bovine) [14]", "value": 0.144}, {"measurement": "OD450", "setting": "牛血清白蛋白(BSA) (bovine) [15]", "value": 1.6}, {"measurement": "OD450", "setting": "CHO细胞裂解液 [16]", "value": 0.134}, {"measurement": "OD450", "setting": "HEK293细胞裂解液 [17]", "value": 0.134}, {"measurement": "OD450", "setting": "Vero细胞裂解液 [18]", "value": 0.14}, {"measurement": "OD450", "setting": "牛血清白蛋白(BSA) (bovine) [19]", "value": 0.175}, {"measurement": "OD450", "setting": "牛血清白蛋白(BSA) (bovine) [20]", "value": 0.403}, {"measurement": "OD450", "setting": "牛血清白蛋白(BSA) (bovine) [21]", "value": 2.02}, {"measurement": "OD450 (平均值)", "setting": "牛血清白蛋白(BSA) (bovine) [22]", "value": 0.408}, {"measurement": "OD450 (平均值)", "setting": "牛血清白蛋白(BSA) (bovine) [23]", "value": 0.303}, {"measurement": "OD450", "setting": "牛血清白蛋白(BSA) (bovine) [24]", "value": "0.312 and 0.315"}, {"measurement": "OD450", "setting": "牛血清白蛋白(BSA) (bovine) [25]", "value": 2.13}, {"measurement": "OD450", "setting": "牛血清白蛋白(BSA) (bovine) [26]", "value": 1.81}, {"measurement": "OD450", "setting": "牛血清白蛋白(BSA) (bovine) [27]", "value": "0.38 and 0.378"}, {"measurement": "OD450", "setting": "牛血清白蛋白(BSA) (bovine) [28]", "value": "0.31 and 0.296"}, {"measurement": "OD450", "setting": "牛血清白蛋白(BSA) (bovine) [29]", "value": 1.12}, {"measurement": "OD450", "setting": "牛血清白蛋白(BSA) (bovine) [30]", "value": "0.312 and 0.315"}, {"measurement": "OD450", "setting": "牛血清白蛋白(BSA) (bovine) [31]", "value": "0.319 and 0.332"}, {"measurement": "OD450", "setting": "牛血清白蛋白(BSA) (bovine) [32]", "value": 0.537}, {"measurement": "OD450", "setting": "牛血清白蛋白(BSA) (bovine) [33]", "value": "0.684 and 0.692"}, {"measurement": "OD450 (平均值)", "setting": "牛血清白蛋白(BSA) (bovine) [34]", "value": 0.512}]}]}
